Data taken from paper PMC4260256, “A novel serine hydroxymethyltransferase from Arthrobacter nicotianae: characterization and improving catalytic efficiency by rational design” (BMC Biotechnology, 2014).

Tested on: NC(C(=O)O)C(O)c1ccccc1
Assay: purified protein
Conditions: pH 7.8; 40.0 °C

Q: With AnSHMT (Glutamicibacter nicotianae) as the substance, how does the Km read?
A: 57.86 ± 0.07 mM

Q: What about the kcat/Km of the same substance?
A: 27.7 M⁻¹ s⁻¹
